In patent publication US20210380703A1 (RIGEL PHARMACEUTICALS, published 2021):
Numbering of substitutions follows the chain as printed. Each block holds one binder with its values, some of them ahead of it.

Experiments:
mouse ACVR2A = mouse ACVR2A (mouse, UniProt P27038 20-135, limits assumed); experiment: ELISA
Method in brief: (§1)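 Binding signal was read by ELISA after ACVR2A-specific monoclonal antibodies were tested against human ACVR2A and mouse ACVR2A, with human Fc as the negative control.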

human ACVR2A = human ACVR2A (human, UniProt P27037 20-135, limits assumed); experiment: ELISA
Sequence of human ACVR2A (P27037 20-135 limits assumed): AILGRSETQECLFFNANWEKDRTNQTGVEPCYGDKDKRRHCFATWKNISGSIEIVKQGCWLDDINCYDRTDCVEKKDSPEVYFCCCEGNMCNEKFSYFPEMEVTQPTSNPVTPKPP
Method in brief: as §1

[1] = target: T1, biotinylated goat anti-human kappa light chain; experiment: ELISA; positive control
T1 construct: Positive control of the ELISA
Method in brief: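 Monoclonal antibodies were first applied to human or mouse ACVR2A, alongside biotinylated goat anti-human kappa light chain (positive control) and human Fc (negative control); binding was then determined by ELISA.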
Further: test concentration or dose not given here.

Sequence of mouse ACVR2A (P27038 20-135 limits assumed): as the sequence (P27037 20-135 limits assumed) above, with K20R, V73I counted along it

B1: 368_D10 (antibody, V domains shown)
VH: EVQLLESGGGLVQPGGSLRLSCAASGFTFDSYGMNWVRQAPGKGLEWVAGINYNSGYTSYADSVKGRFTISRDNSKNTLYLQMNSLRAEDTAVYYCARSATWHDTALDYWGQGTLVTVSS
VL: DIQMTQSPSSLSASVGDRVTITCRASQSILSYLNWYQQKPGKAPKLVIYAATSRASGVPSRFSGSGSGTDFTLTISSLQPEDFATYYCQQSYDSPLTFGGGTKVEIK
notes: VH/VL only
optical density (mouse ACVR2A): 2.45 OD | optical density (human ACVR2A): 2.25 OD | optical density [1]: 3.26 OD

B2: 368_E11 (antibody, V domains shown)
VH: B1 VH with N35H, G50N, S55G, A106H
VL: B1 VL with L30I, L33V, V47L, A55H, D93E, S94L
notes: VH/VL only
optical density (mouse ACVR2A): 2.92 OD | optical density (human ACVR2A): 2.57 OD | optical density [1]: 3.73 OD

B6: 369_F07 (antibody, V domains shown)
VH: B1 VH with G33S, S55G, T58K, A106H
VL: B1 VL with L33V, D93E
notes: VH/VL only
optical density (mouse ACVR2A): 3.43 OD | optical density (human ACVR2A): 3.43 OD | optical density [1]: 3.47 OD

B7: 368_H07 (antibody, V domains shown)
VH: B1 VH with D30S, N35H, G50S, A106H
VL: B1 VL with V47L, D93E, S94N
notes: VH/VL only
optical density (mouse ACVR2A): 2.86 OD | optical density (human ACVR2A): 2.71 OD | optical density [1]: 3.55 OD

B11: 368_G09 (antibody, V domains shown)
VH: B1 VH with N35H, G50N, S55G, A106H
VL: B1 VL with L30V, S94T
notes: VH/VL only
optical density (mouse ACVR2A): 2.81 OD | optical density (human ACVR2A): 2.44 OD | optical density [1]: 3.62 OD

B15: 369_D11 (antibody, V domains shown)
VH: B1 VH with D30S, N35H, G50S, S55G, A106H
VL: B1 VL with S31T, R54L, Y92D, D93E, S94L
notes: VH/VL only
optical density (mouse ACVR2A): 2.99 OD | optical density (human ACVR2A): 2.99 OD | optical density [1]: 3.45 OD

B16: 369_B09 (antibody, V domains shown)
VH: B1 VH with N35H, G50S, S55G, A106H
VL: B1 VL with S31T, V47L, D93E, S94N
notes: VH/VL only
optical density (mouse ACVR2A): 1.58 OD | optical density (human ACVR2A): 1.62 OD | optical density [1]: 2.22 OD

B17: 369_B02 (antibody, V domains shown)
VH: B1 VH with G33S, A49S, S55G, T58K, A106H
VL: B1 VL with D93N, S94L
notes: VH/VL only
optical density (mouse ACVR2A): 3.55 OD | optical density (human ACVR2A): 3.4 OD | optical density [1]: 3.52 OD

B20: 369_E10 (antibody, V domains shown)
VH: B1 VH with D30S, G33S, A49S, G50N, S55G, T58K
VL: B1 VL with L33V, S94L
notes: VH/VL only
optical density (mouse ACVR2A): 3.53 OD | optical density (human ACVR2A): 3.36 OD | optical density [1]: 3.59 OD

B21: 369_B12 (antibody, V domains shown)
VH: B1 VH with G33S, A49S, S55G, T58K, A106H
VL: B1 VL with S31T, L33V, V47L, A51T, R54L
notes: VH/VL only
optical density (mouse ACVR2A): 2.76 OD | optical density (human ACVR2A): 2.67 OD | optical density [1]: 3.56 OD

B23: 368_F12 (antibody, V domains shown)
VH: B1 VH with S31D, G33S, G50S, T58K, A106H
VL: B1 VL with L30V, S31T, R54L, S94L
notes: VH/VL only
optical density (mouse ACVR2A): 1.7 OD | optical density (human ACVR2A): 1.69 OD | optical density [1]: 3.52 OD

B24: 368_H01 (antibody, V domains shown)
VH: B1 VH with D30S, G33S, T58K, A106H
VL: B1 VL with V47L, A51T, R54L, S94N
notes: VH/VL only
optical density (mouse ACVR2A): 3.14 OD | optical density (human ACVR2A): 3.03 OD | optical density [1]: 3.69 OD

B25: 369_A10 (antibody, V domains shown)
VH: B1 VH with G33S, S59G, A106H
VL: B1 VL with V47L, D93E, S94L
notes: VH/VL only
optical density (mouse ACVR2A): 3.14 OD | optical density (human ACVR2A): 3.38 OD | optical density [1]: 3.41 OD

B28: 369_A05 (antibody, V domains shown)
VH: B1 VH with D30S, G33S, S55G, S59G, A106H
VL: B1 VL with S31T, L33V, D93E
notes: VH/VL only
optical density (mouse ACVR2A): 3.25 OD | optical density (human ACVR2A): 3.29 OD | optical density [1]: 3.48 OD

B29: 369_C10 (antibody, V domains shown)
VH: B1 VH with D30S, G33S, G50N, S55G
VL: B1 VL with L30V, S31T, V47L, R54L, A55H, Y92D, D93S, S94L
notes: VH/VL only
optical density (mouse ACVR2A): 2.46 OD | optical density (human ACVR2A): 2.48 OD | optical density [1]: 3.37 OD

B30: 368_G05 (antibody, V domains shown)
VH: B1 VH with G33S, S55G, A106H
VL: B1 VL with S31T, L33V, V47L, R54L, A55H, D93N, S94T
notes: VH/VL only
optical density (mouse ACVR2A): 2.42 OD | optical density (human ACVR2A): 2.17 OD | optical density [1]: 3.35 OD

B35: 368_H12 (antibody, V domains shown)
VH: B1 VH with G33S, G50S, T58K, S59G, A106H
VL: B1 VL with L30V, S31T, V47L, D93E
notes: VH/VL only
optical density (mouse ACVR2A): 2.69 OD | optical density (human ACVR2A): 2.64 OD | optical density [1]: 3.57 OD

The remaining lines, values ahead:

optical density (mouse ACVR2A): 2.63 OD | optical density (human ACVR2A): 2.32 OD | optical density [1]: 3.6 OD
B3: 370_C04 (antibody, V domains shown)
VH: B1 VH with D30S, G50S, A106H
VL: B1 VL with V47L, T52S, R54L, A55Q, D93E, S94N
notes: VH/VL only

optical density (mouse ACVR2A): 3.41 OD | optical density (human ACVR2A): 3.4 OD | optical density [1]: 3.38 OD
B4: 372_D04 (antibody, V domains shown)
VH: B1 VH with D30S, G33S, G50N, S59G, A106H
VL: B1 VL with S31T, V47L, R54L, A55H, S94L
notes: VH/VL only

optical density (mouse ACVR2A): 3.24 OD | optical density (human ACVR2A): 3.25 OD | optical density [1]: 3.4 OD
B5: 372_F07 (antibody, V domains shown)
VH: B1 VH with S31D, G33S, T58K, S59G, A106H
VL: B1 VL with S31T, D93E, S94L
notes: VH/VL only

optical density (mouse ACVR2A): 1.6 OD | optical density (human ACVR2A): 1.34 OD | optical density [1]: 3.52 OD
B8: 370_G12 (antibody, V domains shown)
VH: B1 VH with D30S, G33S, S55G, T58K, S59G
VL: B1 VL with L30I, S31T, V47L, R54L, Y92D, D93E
notes: VH/VL only

optical density (mouse ACVR2A): 3.11 OD | optical density (human ACVR2A): 2.84 OD | optical density [1]: 3.49 OD
B9: 370_B05 (antibody, V domains shown)
VH: B1 VH with D30S, G50S, S55G, A106H
VL: B1 VL with S31T, L33V, D93E, S94N
notes: VH/VL only

optical density (mouse ACVR2A): 3.15 OD | optical density (human ACVR2A): 2.89 OD | optical density [1]: 3.33 OD
B10: 371_F05 (antibody, V domains shown)
VH: B1 VH with D30S, G33S, T58K, A106H
VL: B1 VL with V47L, A55H, D93E, S94N
notes: VH/VL only

optical density (mouse ACVR2A): 3.66 OD | optical density (human ACVR2A): 3.7 OD | optical density [1]: 3.22 OD
B12: 373_B08 (antibody, V domains shown)
VH: B1 VH with G33S, G50N, T58K, S59G, A106H
VL: B1 VL with S31T, R54L, D93E, S94N
notes: VH/VL only

optical density (mouse ACVR2A): 3.65 OD | optical density (human ACVR2A): 3.72 OD | optical density [1]: 3.22 OD
B13: 373_B11 (antibody, V domains shown)
VH: B1 VH with D30S, G33S, G50N, T58K, S59G, A106H
VL: B1 VL with V47L, S94N
notes: VH/VL only

optical density (mouse ACVR2A): 1.83 OD | optical density (human ACVR2A): 1.54 OD | optical density [1]: 3.57 OD
B14: 371_D03 (antibody, V domains shown)
VH: B1 VH with G50N, S55G
VL: B1 VL with S31T, L33V, R54L, D93N, S94T
notes: VH/VL only

optical density (mouse ACVR2A): 3.62 OD | optical density (human ACVR2A): 3.64 OD | optical density [1]: 3.16 OD
B18: 373_B03 (antibody, V domains shown)
VH: B1 VH with D30S, G33S, T58K, A106H
VL: B1 VL with S31T, R54L, S94N
notes: VH/VL only

optical density (mouse ACVR2A): 3.27 OD | optical density (human ACVR2A): 3.12 OD | optical density [1]: 3.59 OD
B19: 371_G03 (antibody, V domains shown)
VH: B1 VH with D30S, G50N, S55G, T58K, S59G, A106H
VL: B1 VL with L30V, S31T, L33V, R54L, D93N, S94L
notes: VH/VL only

optical density (mouse ACVR2A): 3 OD | optical density (human ACVR2A): 3.03 OD | optical density [1]: 3.69 OD
B22: 371_H01 (antibody, V domains shown)
VH: B1 VH with G33S, S55G, S59G, A106H
VL: not shown
notes: VH/VL only

optical density (mouse ACVR2A): 2.77 OD | optical density (human ACVR2A): 2.59 OD | optical density [1]: 3.47 OD
B26: 370_A06 (antibody, V domains shown)
VH: B1 VH with D30S, G33S, G50S, T58K, A106H
VL: B1 VL with L30V, S31T, R54L, S94L
notes: VH/VL only

optical density (mouse ACVR2A): 3.5 OD | optical density (human ACVR2A): 3.44 OD | optical density [1]: 3.45 OD
B27: 370_E07 (antibody, V domains shown)
VH: B1 VH with G33S, G50N, S55G, S59G, A106H
VL: B1 VL with S31T, V47L, S94N
notes: VH/VL only

optical density (mouse ACVR2A): 2.99 OD | optical density (human ACVR2A): 2.34 OD | optical density [1]: 3.59 OD
B31: 370_F08 (antibody, V domains shown)
VH: B1 VH with G33S, S55G, A106H
VL: B1 VL with L30I, L33V, V47L, A55H, D93N, S94L
notes: VH/VL only

optical density (mouse ACVR2A): 2.82 OD | optical density (human ACVR2A): 2.73 OD | optical density [1]: 3.6 OD
B32: 369_F12 (antibody, V domains shown)
VH: B1 VH with D30S, G33S, G50S, T58K, A106H
VL: B1 VL with L30I, V47L, A51V, R54L, D93E, S94N
notes: VH/VL only

optical density (mouse ACVR2A): 3.29 OD | optical density (human ACVR2A): 3.37 OD | optical density [1]: 3.39 OD
B33: 371_C09 (antibody, V domains shown)
VH: B1 VH with G33S, A49S, S55G, T58K, A106H
VL: B1 VL with S31T, L33V, V47L, T52S, R54L, A55Q, S94N
notes: VH/VL only

optical density (mouse ACVR2A): 3.37 OD | optical density (human ACVR2A): 3.32 OD | optical density [1]: 2.98 OD
B34: 369_G07 (antibody, V domains shown)
VH: B1 VH with D30S, G33S, S55G, A106H
VL: B1 VL with S31T, L33V, S94N
notes: VH/VL only

optical density (mouse ACVR2A): 3.56 OD | optical density (human ACVR2A): 3.43 OD | optical density [1]: 3.56 OD
B36: 370_H03 (antibody, V domains shown)
VH: B1 VH with G33S, T58K, S59G, A106H
VL: B1 VL with S31T, V47L, R54L, S94T
notes: VH/VL only
